One block for each binder: values may come before it.
Columns and labels:
Assay in all cases: two-hybrid library CCmax;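 also: natural log of median RNA to DNA barcode read ratio; higher means stronger binding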
4H2575-AA = biological target: T1, 4H2575-AA
T1 chain: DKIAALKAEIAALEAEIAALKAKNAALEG

4H2617-AA = biological target: T2, 4H2617-AA; conditions: mean of both orientations
T2 chain: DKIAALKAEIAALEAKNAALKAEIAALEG

4H2642-AA = biological target: T3, 4H2642-AA; conditions: mean of both orientations
T3 chain: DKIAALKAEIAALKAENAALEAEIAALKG

4H2729-AA = biological target: T4, 4H2729-AA; conditions: mean of both orientations
T4 chain: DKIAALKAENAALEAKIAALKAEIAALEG

4H2754-AA = biological target: T5, 4H2754-AA; conditions: mean of both orientations
T5 chain: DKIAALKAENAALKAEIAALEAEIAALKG

4H2837-AA = biological target: T6, 4H2837-AA; conditions: mean of both orientations
T6 chain: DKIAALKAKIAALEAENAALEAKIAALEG

4H2944-AA = biological target: T7, 4H2944-AA; conditions: mean of both orientations
T7 chain: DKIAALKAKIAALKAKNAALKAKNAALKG

4H2949-AA = biological target: T8, 4H2949-AA; conditions: mean of both orientations
T8 chain: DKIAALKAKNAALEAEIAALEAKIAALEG

4H3112-AA = biological target: T9, 4H3112-AA; conditions: mean of both orientations
T9 chain: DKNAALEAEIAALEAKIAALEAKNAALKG

4H317-AA = biological target: T10, 4H317-AA; conditions: mean of both orientations
T10 chain: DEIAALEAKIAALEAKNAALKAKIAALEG

4H3343-AA = biological target: T11, 4H3343-AA; conditions: mean of both orientations
T11 chain: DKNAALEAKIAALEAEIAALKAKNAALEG

4H335-AA = biological target: T12, 4H335-AA; conditions: mean of both orientations
T12 chain: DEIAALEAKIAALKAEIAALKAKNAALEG

4H342-AA = biological target: T13, 4H342-AA; conditions: mean of both orientations
T13 chain: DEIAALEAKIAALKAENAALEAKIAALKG

4H3427-AA = biological target: T14, 4H3427-AA; conditions: mean of both orientations
T14 chain: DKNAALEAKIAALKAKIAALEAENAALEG

4H3627-AA = biological target: T15, 4H3627-AA; conditions: mean of both orientations
T15 chain: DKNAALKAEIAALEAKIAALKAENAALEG

4H3655-AA = biological target: T16, 4H3655-AA; conditions: mean of both orientations
T16 chain: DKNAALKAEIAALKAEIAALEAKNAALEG

4H3844-AA = biological target: T17, 4H3844-AA; conditions: mean of both orientations
T17 chain: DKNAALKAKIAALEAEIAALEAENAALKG

4H3921-AA = biological target: T18, 4H3921-AA; conditions: mean of both orientations
T18 chain: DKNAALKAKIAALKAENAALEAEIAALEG

4H429-AA = biological target: T19, 4H429-AA; conditions: mean of both orientations
T19 chain: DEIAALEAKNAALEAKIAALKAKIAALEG

4H454-AA = biological target: T20, 4H454-AA; conditions: mean of both orientations
T20 chain: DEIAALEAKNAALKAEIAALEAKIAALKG

4H566-AA = biological target: T21, 4H566-AA; conditions: mean of both orientations
T21 chain: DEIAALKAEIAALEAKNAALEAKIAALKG

4H605-AA = biological target: T22, 4H605-AA; conditions: mean of both orientations
T22 chain: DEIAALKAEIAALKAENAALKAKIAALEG

4H678-AA = biological target: T23, 4H678-AA; conditions: mean of both orientations
T23 chain: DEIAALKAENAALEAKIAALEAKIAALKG

4H717-AA = biological target: T24, 4H717-AA; conditions: mean of both orientations
T24 chain: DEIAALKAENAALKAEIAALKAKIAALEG

4H780-AA = biological target: T25, 4H780-AA; conditions: mean of both orientations
T25 chain: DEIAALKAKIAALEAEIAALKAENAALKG

4H794-AA = biological target: T26, 4H794-AA; conditions: mean of both orientations
T26 chain: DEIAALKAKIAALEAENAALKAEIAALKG

4H881-AA = biological target: T27, 4H881-AA
T27 chain: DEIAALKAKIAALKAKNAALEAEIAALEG

4H906-AA = biological target: T28, 4H906-AA; conditions: mean of both orientations
T28 chain: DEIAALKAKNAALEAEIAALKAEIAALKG

4H993-AA = biological target: T29, 4H993-AA; conditions: mean of both orientations
T29 chain: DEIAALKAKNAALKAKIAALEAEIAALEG

APC4336-AA = biological target: T30, APC4336-AA
T30 chain: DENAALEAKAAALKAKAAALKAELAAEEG

APC5009-AA = biological target: T31, APC5009-AA; conditions: mean of both orientations
T31 chain: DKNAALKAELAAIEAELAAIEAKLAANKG

APC542-AA = biological target: T32, APC542-AA; conditions: mean of both orientations
T32 chain: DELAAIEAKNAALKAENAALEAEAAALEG

APC5531-AA = biological target: T33, APC5531-AA; conditions: mean of both orientations
T33 chain: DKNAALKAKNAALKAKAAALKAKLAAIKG

APC6088-AA = biological target: T34, APC6088-AA; conditions: mean of both orientations
T34 chain: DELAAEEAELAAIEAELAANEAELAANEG

APC7524-AA = biological target: T35, APC7524-AA; conditions: mean of both orientations
T35 chain: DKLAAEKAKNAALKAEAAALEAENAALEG

APC8401-AA = biological target: T36, APC8401-AA; conditions: mean of both orientations
T36 chain: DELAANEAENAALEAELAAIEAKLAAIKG

APC8516-AA = biological target: T37, APC8516-AA; conditions: mean of both orientations
T37 chain: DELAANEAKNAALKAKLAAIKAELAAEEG

APC9141-AA = biological target: T38, APC9141-AA; conditions: mean of both orientations
T38 chain: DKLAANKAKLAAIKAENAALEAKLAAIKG

APC9182-AA = biological target: T39, APC9182-AA; conditions: mean of both orientations
T39 chain: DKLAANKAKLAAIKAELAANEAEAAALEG

APC9291-AA = biological target: T40, APC9291-AA; conditions: mean of both orientations
T40 chain: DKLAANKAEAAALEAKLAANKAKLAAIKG

APC9806-AA = biological target: T41, APC9806-AA; conditions: mean of both orientations
T41 chain: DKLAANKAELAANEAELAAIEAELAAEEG

interaction score (4H2575-AA): 1.9 | interaction score (4H2617-AA): 0.75 | interaction score (4H2642-AA): -1.2 | interaction score (4H2729-AA): 0.467 | interaction score (4H2754-AA): -1.28 | interaction score (4H2837-AA): -1.05 | interaction score (4H2944-AA): -0.604 | interaction score (4H2949-AA): -0.954 | interaction score (4H3112-AA): -0.383 | interaction score (4H317-AA): 0.149 | interaction score (4H3343-AA): -0.0872 | interaction score (4H335-AA): 1.88 | interaction score (4H342-AA): 1.14 | interaction score (4H3427-AA): 0.849 | interaction score (4H3627-AA): 0.318 | interaction score (4H3655-AA): -0.814 | interaction score (4H3844-AA): -0.532 | interaction score (4H3921-AA): -1.45 | interaction score (4H429-AA): -0.196 | interaction score (4H454-AA): 1.03 | interaction score (4H566-AA): -1.21 | interaction score (4H605-AA): -1.27 | interaction score (4H678-AA): -0.968 | interaction score (4H717-AA): -1.25 | interaction score (4H780-AA): 0.14 | interaction score (4H794-AA): -1.27 | interaction score (4H881-AA): -0.902 | interaction score (4H906-AA): -1.56 | interaction score (4H993-AA): -0.15
Binder: DKIAALKAEIAALEAEIAALKAKNAALEG [4H2575-AA]

interaction score (APC4336-AA): -3.13 | interaction score (APC5009-AA): 1.2 | interaction score (APC542-AA): -2.08 | interaction score (APC5531-AA): -2.38 | interaction score (APC6088-AA): -1.93 | interaction score (APC7524-AA): -1.86 | interaction score (APC8401-AA): -1.59 | interaction score (APC8516-AA): -1.7 | interaction score (APC9141-AA): -2.48 | interaction score (APC9182-AA): -1.89 | interaction score (APC9291-AA): -2.36 | interaction score (APC9806-AA): -1.53
Binder: DENAALEAKAAALKAKAAALKAELAAEEG [APC4336-AA]

— publication PMC10397247
